In patent US10640547B2, “Immunotherapy against melanoma and other cancers” (IMMATICS BIOTECHNOLOGIES GMBH, priority 2016, dated 2020) one finds Peptide exchange data, which are given here for 55 substances.

In the test the target is HLA-A*02:01 (Homo sapiens, UniProt P04439, D140Y/D185E/D98H/E176V/E277Q/G131W/G231S/I119V/I121R/I166T/I218V/L300P/L318F/N151K/N90K/P208A/P217A/Q86G/Q94H/R138H/R169H/T345S). As to the kind of experiment: MHC binding assay (UV-ligand exchange, β2m ELISA). As to conditions: MHC class I binding score; binding to HLA-A*02:01 ranged by peptide exchange yield (UV-ligand exchange, β2m ELISA). From the text: Candidate peptides for T cell based therapies according to the present invention were further tested for their MHC binding capacity (affinity). The individual peptide-MHC complexes were produced by UV-ligand exchange, where a UV-sensitive peptide is cleaved upon UV-irradiation, and exchanged with the peptide of interest as analyzed. Only peptide candidates that can effectively bind and stabilize the peptide-receptive MHC molecules prevent dissociation of the MHC complexes. To determine the yield of the exchange reaction, an ELISA was performed based on the detection of the light chain (β2m) of stabilized MHC complexes. The assay was performed as generally described in Rodenko et al. (Rodenko et al., 2006).
96 well MAXISorp plates (NUNC) were coated over night with 2 ug/ml streptavidin in PBS at room temperature, washed 4× and blocked for 1 h at 37° C. in 2% BSA containing blocking buffer. Refolded HLA-A*02:01/MLA-001 monomers served as standards, covering the range of 15-500 ng/ml. Peptide-MHC monomers of the UV-exchange reaction were diluted 100 fold in blocking buffer. Samples were incubated for 1 h at 37° C., washed four times, incubated with 2 ug/ml HRP conjugated anti-β2m for 1 h at 37° C., washed again and detected with TMB solution that is stopped with […]. Absorption was measured at 450 nm. Candidate peptides that show a high exchange yield (preferably higher than 50%, most preferred higher than 75%) are generally preferred for a generation and production of antibodies or fragments thereof, and/or T cell receptors or fragments thereof, as they show sufficient avidity to the MHC molecules and prevent dissociation of the MHC complexes.
Regarding “1 (FLDVKELML; listed as Homo sapiens) [compound 1]”, the Peptide exchange result is “++++ (>75% = ++++)”.
Take “2 (VLLGENVEL; listed as Homo sapiens) [compound 2]”: the Peptide exchange result is recorded as “+++ (>50 = +++)”.
With “5 (ILDEGHILQL; listed as Homo sapiens) [compound 5]”, the Peptide exchange entry is “++++ (>75% = ++++)”.
Under “6 (SIPDTIASV; listed as Homo sapiens) [compound 6]” stands “+++ (>50 = +++)”.
Turning to “7 (NLQEKVPEL; listed as Homo sapiens) [compound 7]”, the Peptide exchange entry is on record as “+++ (>50 = +++)”.
Turning to “19 (VLAVLGAVVAV; listed as Homo sapiens) [compound 19]”, the Peptide exchange result is “+++ (>50 = +++)”.
Under “22 (KLLELQELVL; listed as Homo sapiens) [compound 22]” stands “++++ (>75% = ++++)”; under “23 (FLGDPPPGL; listed as Homo sapiens) [compound 23]”, “+++ (>50 = +++)”.
For the substance “24 (SLVAILHLL; listed as Homo sapiens) [compound 24]”, the Peptide exchange entry is “+++ (>50 = +++)”.
Under “25 (FIDPEQIQV; listed as Homo sapiens) [compound 25]” stands “+++ (>50 = +++)”; under “26 (KIEDLIKYL; listed as Homo sapiens) [compound 26]”, “+++ (>50 = +++)”; under “27 (TLWYVPLSL; listed as Homo sapiens) [compound 27]”, “++++ (>75% = ++++)”.
“28 (IVDNTTMQL; listed as Homo sapiens) [compound 28]”: the Peptide exchange result is “+++ (>50 = +++)”.
On to “29 (ILDDVAMVL; listed as Homo sapiens) [compound 29]”, for which the Peptide exchange result is given as “+++ (>50 = +++)”.
The result for “30 (VLFPMDLAL; listed as Homo sapiens) [compound 30]” reads “+++ (>50 = +++)”; that for “32 (GLDIITNKV; listed as Homo sapiens) [compound 32]”, “+++ (>50 = +++)”.
In the case of “35 (ALFAAGANV; listed as Homo sapiens) [compound 35]”, the Peptide exchange result is recorded as “+++ (>50 = +++)”.
Under “36 (SVNGFISTL; listed as Homo sapiens) [compound 36]” stands “++ (>20% = ++)”; under “37 (TLKEYLESL; listed as Homo sapiens) [compound 37]”, “+++ (>50 = +++)”; under “38 (KLGFGTGVNVYL; listed as Homo sapiens) [compound 38]”, “++++ (>75% = ++++)”.
The result for “39 (ALPPPPASI; listed as Homo sapiens) [compound 39]” reads “+++ (>50 = +++)”; that for “40 (LLSNTVSTL; listed as Homo sapiens) [compound 40]”, “+++ (>50 = +++)”.
As for “41 (LLDDPTNAHFI; listed as Homo sapiens) [compound 41]”, the Peptide exchange result is recorded as “+++ (>50 = +++)”.
Take “42 (VLKADVVLL; listed as Homo sapiens) [compound 42]”: the Peptide exchange result is “++ (>20% = ++)”.
Under “43 (LLPDPLYSL; listed as Homo sapiens) [compound 43]” stands “++ (>20% = ++)”; under “44 (FLYTYIAKV; listed as Homo sapiens) [compound 44]”, “+++ (>50 = +++)”; under “45 (FVYGEPREL; listed as Homo sapiens) [compound 45]”, “+++ (>50 = +++)”.
As for “46 (VMSSTLYTV; listed as Homo sapiens) [compound 46]”, the Peptide exchange entry is given as “++++ (>75% = ++++)”.
“47 (ALDSDPVGL; listed as Homo sapiens) [compound 47]”: the Peptide exchange entry was “+++ (>50 = +++)”.
Regarding “48 (HLIGWTAFL; listed as Homo sapiens) [compound 48]”, the Peptide exchange entry is given as “++++ (>75% = ++++)”.
For the substance “49 (ALLSQDFEL; listed as Homo sapiens) [compound 49]”, the Peptide exchange result is on record as “++++ (>75% = ++++)”.
As for “50 (HLDQIFQNL; listed as Homo sapiens) [compound 50]”, the Peptide exchange result is reported as “++ (>20% = ++)”.
In the case of “51 (LIDKIIEYL; listed as Homo sapiens) [compound 51]”, the Peptide exchange entry was “++ (>20% = ++)”.
Regarding “52 (NLDYAILKL; listed as Homo sapiens) [compound 52]”, the Peptide exchange result was “+ (>10% = +)”.
For the substance “53 (ILDEEKFNV; listed as Homo sapiens) [compound 53]”, the Peptide exchange result is on record as “+++ (>50 = +++)”.
As to “54 (LLDSGAFHL; listed as Homo sapiens) [compound 54]”, the Peptide exchange result is “+++ (>50 = +++)”.
“55 (NLDKLYHGL; listed as Homo sapiens) [compound 55]”: the Peptide exchange result is “+ (>10% = +)”.
For the substance “56 (ILDELVKSL; listed as Homo sapiens) [compound 56]”, the Peptide exchange entry is reported as “+++ (>50 = +++)”.
Take “57 (GILSFLPVL; listed as Homo sapiens) [compound 57]”: the Peptide exchange entry is listed as “+++ (>50 = +++)”.
Consider “58 (ILGDWSIQV; listed as Homo sapiens) [compound 58]”, for which the Peptide exchange result is “++++ (>75% = ++++)”.
Take “59 (IIDDVMKEL; listed as Homo sapiens) [compound 59]”: the Peptide exchange entry is reported as “++ (>20% = ++)”.
Under “60 (ILPEAQDYFL; listed as Homo sapiens) [compound 60]” stands “++++ (>75% = ++++)”; under “61 (KLSVHVTAL; listed as Homo sapiens) [compound 61]”, “++++ (>75% = ++++)”; under “62 (LLDTTQKYL; listed as Homo sapiens) [compound 62]”, “++++ (>75% = ++++)”.
Consider “63 (SIDDSDPIV; listed as Homo sapiens) [compound 63]”, for which the Peptide exchange entry is “+ (>10% = +)”.
As for “64 (SLGPIMLTKI; listed as Homo sapiens) [compound 64]”, the Peptide exchange entry is recorded as “++ (>20% = ++)”.
With “65 (TTLGGFAKV; listed as Homo sapiens) [compound 65]”, the Peptide exchange result is reported as “++ (>20% = ++)”.
Take “66 (VMFEYGMRL; listed as Homo sapiens) [compound 66]”: the Peptide exchange result is “++++ (>75% = ++++)”.
In the case of “67 (YVDSEGIVRM; listed as Homo sapiens) [compound 67]”, the Peptide exchange entry is listed as “+ (>10% = +)”.
On to “68 (FLAEAARSL; listed as Homo sapiens) [compound 68]”, for which the Peptide exchange result is reported as “++++ (>75% = ++++)”.
For “69 (IIDDKPIGL; listed as Homo sapiens) [compound 69]”, the Peptide exchange result is on record as “+++ (>50 = +++)”.
Take “70 (LIDEAAQML; listed as Homo sapiens) [compound 70]”: the Peptide exchange entry is “+++ (>50 = +++)”.
Under “71 (SLDEVAVSL; listed as Homo sapiens) [compound 71]” stands “++++ (>75% = ++++)”; under “72 (TLLEVDAIVNA; listed as Homo sapiens) [compound 72]”, “++++ (>75% = ++++)”; under “73 (ELDKIYETL; listed as Homo sapiens) [compound 73]”, “+ (>10% = +)”.
